Results: article doi:10.1101/2024.07.27.605439

Experiments:
[1] = molecular target: Gαi1-V185F/H213Q double mutant (human) (UniProt P63096)
[2] = molecular target: Gαi1-H213Q single mutant (human) (UniProt P63096)
[3] = molecular target: Gαi1-V185F single mutant (human) (UniProt P63096)
[4] = molecular target: Gαs-D229S single mutant (human) (UniProt P63092)
[5] = molecular target: Gαs-F208V/D229S/Q236H triple mutant (human) (UniProt P63092)

- EC50 of RGS16 GAP activity (dose response) towards Gαi1-V185F/H213Q [1]: 45 nM
- EC50 of RGS16 GAP activity (dose response) towards Gαi1-H213Q [2]: 7 nM
- EC50 of RGS16 GAP activity (dose response) towards Gαi1-V185F [3]: 4 nM
- EC50 of RGS16 GAP activity (dose response) towards Gαs-D229S [4]: 800 nM
- EC50 of RGS16 GAP activity (dose response) towards Gαs-F208V/D229S/Q236H [5]: 9 nM
Substance: RGS domain of human RGS16 (residue 86–205) (domain or fragment)
